Source: patent US20090099029

B1: STK22B(TSSK2) (protein)
chain: MDDATVLRKKGYIVGINLGKGSYAKVKSAYSERLKFNVAVKIIDRKKTPTDFVERFLPREMDILATVNHGSIIKTYEIFETSDGRIYIIMELGVQGDLLEFIKCQGALHEDVARKMFRQLSSAVKYCHDLDIVHRDLKCENLLLDKDFNIKLSDFGFSKRCLRDSNGRIILSKTFCGSAAYAAPEVLQSIPYQPKVYDIWSLGVILYIMVCGSMPYDDSDIRKMLRIQKEHRVDFPRSKNLTCECKDLIYRMLQPDVSQRLHIDEILSHSWLQPPKPKATSSASFKREGEGKYRAECKLDTKTGLRPDHRPDHKLGAKTQHRLLVVPENENRMEDRLAETSRAKDHHISGAEVGKAST
B2: STK22D(TSSK1) (protein)
chain: MDDAAVLKRRGYLLGINLGEGSYAKVKSAYSERLKFNVAIKIIDRKKAPADFLEKFLPREIEILAMLNHCSIIKTYEIFETSHGKVYIVMELAVQGDLLELIKTRGALHEDEARKKFHQLSLAIKYCHDLDVVHRDLKCDNLLLDKDFNIKLSDFSFSKRCLRDDSGRMALSKTFCGSPAYAAPEVLQGIPYQPKVYDIWSLGVILYIMVCGSMPYDDSNIKKMLRIQKEHRVNFPRSKHLTGECKDLIYHMLQPDVNRRLHIDEILSHCWMQPKARGSPSVAINKEGESSRGTEPLWTPEPGSDKKSATKLEPEGEAQPQAQPETKPEGTAMQMSRQSEILGFPSKPSTMETEEGPPQQPPETRAQ
B3: TAOK2(TAO1) (protein)
chain: MPAGGRAGSLKDPDVAELFFKDDPEKLFSDLREIGHGSFGAVYFARDVRNSEVVAIKKMSYSGKQSNEKWQDIIKEVRFLQKLRHPNTIQYRGCYLREHTAWLVMEYCLGSASDLLEVHKKPLQEVEIAAVTHGALQGLAYLHSHNMIHRDVKAGNILLSEPGLVKLGDFGSASIMAPANSFVGTPYWMAPEVILAMDEGQYDGKVDVWSLGITCIELAERKPPLFNMNAMSALYHIAQNESPVLQSGHWSEYFRNFVDSCLQKIPQDRPTSEVLLKHRFVLRERPPTVIMDLIQRTKDAVRELDNLQYRKMKK
B4: TAOK3(JIK) (protein)
chain: MRKGVLKDPEIADLFYKDDPEELFIGLHEIGHGSFGAVYFATNAHTSEVVAIKKMSYSGKQTHEKWQDILKEVKFLRQLKHPNTIEYKGCYLKEHTAWLVMEYCLGSASDLLEVHKKPLQEVEIAAITHGALHGLAYLHSHALIHRDIKAGNILLTEPGQVKLADFGSASMASPANSFVGTPYWMAPEVILAMDEGQYDGKVDIWSLGITCIELAERKPPLFNMNAMSALYHIAQNDSPTLQSNEWTDSFRRFVDYCLQKIPQERPTSAELLRHDFVRRDRPLRVLIDLIQRTKDAVRELDNLQYRKMKKILFQETRNGPLNESQEDEEDSEHGTSLNREMDSLGSNHSIPSMSVSTGSQSSSVNSMQEVMDESSSELVMMHDDESTINSSSSVVHKKDHVFIRDEAGHGDPRPEPRPTQSVQSQALHYRNRERFATIKSASLVTRQIHEHEQENELREQMSGYKRMRRQHQKQLIALENKLKAEMDEHRLKLQKEVETHANNSSIELEKLAKKQVAIIEKEAKVAAADEKKFQQQILAQQKKDLTTFLESQKKQYKICKEKIKEEMNEDHSTPKKEKQERISKHKENLQHTQAEEEAHLLTQQRLYYDKNCRFFKRKIMIKRHEVEQQNIREELNKKRTQKEMEHAMLIRHDESTRELEYRQLHTLQKLRMDLIRLQHQTELENQLEYNKRRERELHRKHVMELRQQPKNLKAMEMQIKKQFQDTCKVQTKQYKALKNHQLEVTPKNEHKTILKTLKDEQTRKLAILAEQYEQSINEMMASQALRLDEAQEAECQALRLQLQQEMELLNAYQSKIKMQTEAQHERELQKLEQRVSLRRAHLEQKIEEELAALQKERSERIKNLLERQEREIETFDMESLRMGFGNLVTLDFPKEDYR
B5: TBK1 (protein)
chain: MQSTSNHLWLLSDILGQGATANVFRGRHKKTGDLFAIKVFNNISFLRPVDVQMREFEVLKKLNHKNIVKLFAIEEETTTRHKVLIMEFCPCGSLYTVLEEPSNAYGLPESEFLIVLRDVVGGMNHLRENGIVHRDIKPGNIMRVIGEDGQSVYKLTDFGAARELEDDEQFVSLYGTEEYLHPDMYERAVLRKDHQKKYGATVDLWSIGVTFYHAATGSLPFRPFEGPRRNKEVMYKIITGKPSGAISGVQKAENGPIDWSGDMPVSCSLSRGLQVLLTPVLANILEADQEKCWGFDQFFAETSDILHRMVIHVFSLQQMTAHKIYIHSYNTATIFHELVYKQTKIISSNQELIYEGRRLVLEPGRLAQHFPKTTEENPIFVVSREPLNTIGLIYEKISLPKVHPRYDLDGDASMAKAITGVVCYACRIASTLLLYQELMRKGIRWLIELIKDDYNETVHKKTEVVITLDFCIRNIEKTVKVYEKLMKINLEAAELGEISDIHTKLLRLSSSQGTIETSLQDIDSRLSPGGSLADAWAHQEGTHPKDRNVEKLQVLLNCMTEIYYQFKKDKAERRLAYNEEQIHKFDKQKLYYHATKAMTHFTDECVKKYEAFLNKSEEWIRKMLHLRKQLLSLTNQCFDIEEEVSKYQEYTNELQETLPQKMFTASSGIKHTMTPIYPSSNTLVEMTLGMKKLKEEMEGVVKELAENNHILERFGSLTMDGGLRNVDCL
B6: TTK (protein)
chain: MESEDLSGRELTIDSIMNKVRDIKNKFKNEDLTDELSLNKISADTTDNSGTVNQIMMMANNPEDWLSLLLKLEKNSVPLSDALLNKLIGRYSQAIEALPPDKYGQNESFARIQVRFAELKAIQEPDDARDYFQMARANCKKFAFVHISFAQFELSQGNVKKSKQLLQKAVERGAVPLEMLEIALRNLNLQKKQLLSEEEKKNLSASTVLTAQESFSGSLGHLQNRNNSCDSRGQTTKARFLYGENMPPQDAEIGYRNSLRQTNKTKQSCPFGRVPVNLLNSPDCDVKTDDSVVPCFMKRQTSRSECRDLVVPGSKPSGNDSCELRNLKSVQNSHFKEPLVSDEKSSELIITDSITLKNKTESSLLAKLEETKEYQEPEVPESNQKQWQSKRKSECINQNPAASSNHWQIPELARKVNTEQKHTTFEQPVFSVSKQSPPISTSKWFDPKSICKTPSSNTLDDYMSCFRTPVVKNDFPPACQLSTPYGQPACFQQQQHQILATPLQNLQVLASSSANECISVKGRIYSILKQIGSGGSSKVFQVLNEKKQIYAIKYVNLEEADNQTLDSYRNEIAYLNKLQQHSDKIIRLYDYEITDQYIYMVMECGNIDLNSWLKKKKSIDPWERKSYWKNMLEAVHTIHQHGIVHSDLKPANFLIVDGMLKLIDFGIANQMQPDTTSVVKDSQVGTVNYMPPEAIKDMSSSRENGKSKSKISPKSDVWSLGCILYYMTYGKTPFQQIINQISKLHAIIDPNHEIEFPDIPEKDLQDVLKCCLKRDPKQRISIPELLAHPYVQIQTHPVNQMAKGTTEEMKYVLGQLVGLNSPNSILKAAKTLYEHYSGGESHNSSSSKTFEKKRGKK
B7: FGFR2 (protein)
chain: RMKNTTKKPDFSSQPAVHKLTKRIPLRRQVTVSAESSSSMNSNTPLVRITTRLSSTADTPMLAGVSEYELPEDPKWEFPRDKLTLGKPLGEGCFGQVVMAEAVGIDKDKPKEAVTVAVKMLKDDATEKDLSDLVSEMEMMKMIGKHKNIINLLGACTQDGPLYVIVEYASKGNLREYLRARRPPGMEYSYDINRVPEEQMTFKDLVSCTYQLARGMEYLASQKCIHRDLAARNVLVTENNVMKIADFGLARDINNIDYYKKTTNGRLPVKWMAPEALFDRVYTHQSDVWSFGVLMWEIFTLGGSPYPGIPVEELFKLLKEGHRMDKPANCTNELYMMMRDCWHAVPSQRPTFKQLVEDLDRILTLTTNEEYLDLSQPLEQYSPSYPDTRSSCSSGDDSVFSPDPMPYEPCLPQYPHINGSVKT

Target: T1, Bovine, dephosphorylated, Myelin Basic Protein (MBP), P02687
T1 chain: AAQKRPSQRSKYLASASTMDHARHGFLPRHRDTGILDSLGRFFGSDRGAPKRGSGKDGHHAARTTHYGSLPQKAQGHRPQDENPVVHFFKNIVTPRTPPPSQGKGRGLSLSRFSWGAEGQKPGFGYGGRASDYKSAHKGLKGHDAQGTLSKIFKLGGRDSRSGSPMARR

Protein | MBP Kinase Activity
B1 | Negative
B2 | Strong
B3 | Strong
B4 | Strong
B5 | Strong
B6 | Negative
B7 | Strong
